According to patent US20200017877:

How the values were obtained:
Assay in all cases: cell_activity
[1] = tested on: btGDF83.6 right TALEN; details: pair, listed as btGDF83.6N
[2] = tested on: ssTp53 right TALEN; details: pair
[3] = tested on: ssGDF83.6 right TALEN; details: pair, 3/90
[4] = tested on: Kiss1.1a (tilapia) left TALEN; details: pair, tilapia Kiss20; range 48-91; Kiss1.1a locus
[5] = tested on: Kiss1.1a (tilapia) right TALEN; details: pair, tilapia Kiss20; range 48-91; Kiss1.1a locus
[6] = tested on: ssAPC14.2 right TALEN; details: pair
[7] = tested on: caFecB6.1 left TALEN; details: pair
[8] = tested on: ssRAG2.1 left TALEN; details: pair
[9] = tested on: ssGDF83.6 left TALEN; details: pair, 3/90
[10] = tested on: ssEIF4GI14.1 right TALEN; details: pair
[11] = tested on: btRosa1.2 right TALEN; details: pair
[12] = tested on: ssLDLR2.1 right TALEN; details: pair LDLRE2.1, pig male fibroblasts
[13] = tested on: ssSRY3.2 left TALEN; details: pair
[14] = tested on: caFecB6.1 right TALEN; details: pair
[15] = tested on: ssDAZL3.1 right TALEN; details: pair
[16] = tested on: ssSRY3.2 right TALEN; details: pair
[17] = tested on: ssRAG2.1 right TALEN; details: pair
[18] = tested on: btACAN12 left TALEN; details: pair, cattle fibroblasts
[19] = tested on: btACAN12 right TALEN; details: pair, cattle fibroblasts
[20] = tested on: ssEIF4GI14.1 left TALEN; details: pair
[21] = tested on: ssLDLR2.1 left TALEN; details: pair LDLRE2.1, pig male fibroblasts
[22] = tested on: ssP65.8 left TALEN; details: pair
[23] = tested on: btRosa1.2 left TALEN; details: pair
[24] = tested on: btGDF83.1 right TALEN; details: pair, cattle fibroblasts
[25] = tested on: ssP65.8 right TALEN; details: pair
[26] = tested on: caCLPG1.1 left TALEN; details: pair caCLPG1.1
[27] = tested on: ssDMDE7.1 left TALEN; details: pair, pig fibroblasts
[28] = tested on: ssDMDE7.1 right TALEN; details: pair, pig fibroblasts
[29] = tested on: ssKissR3.2 left TALEN; details: pair
[30] = tested on: btGDF83.6-G left TALEN; details: pair, listed as btGDF83.6N
[31] = tested on: caCLPG1.1 right TALEN; details: pair; 0/14 colonies confirmed (Table 6)
[32] = tested on: ssAPC14.2 left TALEN; details: pair
[33] = tested on: ssDAZL3.1 left TALEN; details: pair
[34] = tested on: ssTp53 left TALEN; details: pair
[35] = tested on: btGDF83.1 left TALEN; details: pair, cattle fibroblasts
[36] = tested on: ssDMDE6 right TALEN; details: pair, pig fibroblasts
[37] = tested on: ssDMDE6 left TALEN; details: pair, pig fibroblasts
[38] = tested on: ssKissR3.2 right TALEN; details: pair

Q: “AAAAGTATCCTCAT (double strand) [GDF83.6 right half-site (sense strand)]” was tested. Which activity [1] did it give?
A: 18 % HDR day 3

Q: For “AAGTCAGAGTACATG (double strand) [Tp53 right half-site (sense strand)]”, which activity [2] is on record?
A: 22 % HDR day 3

Q: “ACAAAAATACCCTCAC (double strand) [ssGDF83.6 right half-site (sense strand)]” was tested. Which activity (% HDR+ colonies) [3] did it give?
A: 3

Q: With “ACAACCCTCTCAGCCTT (double strand) [Kiss1.1a left half-site]” as the sequence, how does the activity (% mosaic somatic mutation) [4] read?
A: 91

Q: “ACAATGGCTACATTTAC (double strand) [Kiss1.1a right half-site (sense strand)]” was tested. Which activity (% mosaic somatic mutation) [5] did it give?
A: 91

Q: “ACAGAAATTCTGGGTC (double strand) [APC14.2 right half-site (sense strand)]” was tested. Which activity [6] did it give?
A: 48 % HDR day 3

Q: How did the activity [7] turn out when “ACAGAGGAGGCCAGCTGGTT (double strand) [FecB6.1 left half-site]” was run?
A: 17 % HDR day 3

Q: For “ACCTTCCTCCTCTCCGCT (double strand) [RAG2.1 left half-site]”, which activity [8] is on record?
A: 47 % HDR day 3

Q: “ACTGCTCTGGAGAGT (double strand) [ssGDF83.6 left half-site]” was tested. Which activity (% HDR+ colonies) [9] did it give?
A: 3

Q: Which activity [10] does the source give for “AGCAACCGTGGGCCCCCA (double strand) [EIF4GI14.1 right half-site (sense strand)]” here?
A: 52 % HDR day 3

Q: With “AGGTAGGGTGGAGAGAG (double strand) [Rosa1.2 right half-site (sense strand)]” as the sequence, how does the activity [11] read?
A: 45 % HDR day 3

Q: “AGTGCAAGGACGGGTCCG (double strand) [LDLR2.1 right half-site (sense strand)]” was tested. Which activity (% modified day 3) [12] did it give?
A: 19

Q: With “ATACATTTTACACACATAT (double strand) [SRY3.2 left half-site]” as the sequence, how does the activity [13] read?
A: 30 % HDR day 3

Q: How did the activity [14] turn out when “ATATCAGACGGTGTTGATG (double strand) [FecB6.1 right half-site (sense strand)]” was run?
A: 17 % HDR day 3

Q: With “ATATGGTTCAGTAAAAG (double strand) [DAZL3.1 right half-site (sense strand)]” as the sequence, how does the activity [15] read?
A: 25 % HDR day 3

Q: “ATTAATGGCCTGAACCT (double strand) [SRY3.2 right half-site (sense strand)]” was tested. Which activity [16] did it give?
A: 30 % HDR day 3

Q: With “ATTCAAAAGCAGCTTAG (double strand) [RAG2.1 right half-site (sense strand)]” as the sequence, how does the activity [17] read?
A: 47 % HDR day 3

Q: “CCCTCTTCCTTTCCTCCAGGGATCCCTCCTACATGGCCTCCCACTGGAGAAGCAACAGAGGAGCACACAGA (double strand) [ACAN12 target]” was tested. Which activity (% modified day 3) [18] did it give?
A: 29

Q: What about the activity (% modified day 3) [19] of the same sequence?
A: 29

Q: How did the activity [20] turn out when “CCGTCCTTTGCCAACCTT (double strand) [EIF4GI14.1 left half-site]” was run?
A: 52 % HDR day 3

Q: With “CTCCTACAAGTGGATTT (double strand) [LDLR2.1 left half-site]” as the sequence, how does the activity (% modified day 3) [21] read?
A: 19

Q: How did the activity [22] turn out when “CTCCTCCATTGCGGA (double strand) [P65.8 left half-site]” was run?
A: 18 % HDR day 3

Q: Which activity [23] does the source give for “CTCGCATTGCCCACT (double strand) [Rosa1.2 left half-site]” here?
A: 45 % HDR day 3

Q: How did the activity (% modified day 3) [24] turn out when “CTCTAACTGTGGATTTTGA (double strand) [GDF83.1 right half-site (sense strand)]” was run?
A: 17

Q: “CTTCTGAGTCAGATC (double strand) [P65.8 right half-site (sense strand)]” was tested. Which activity [25] did it give?
A: 18 % HDR day 3

Q: For “GAGAGCGCAGGAATCCAGG (double strand) [CLPG1.1 left half-site]”, which activity [26] is on record?
A: 4 % HDR day 3

Q: How did the activity (% modified day 3) [27] turn out when “GCCACACAACGACTGGAACATGCATTCAACATCGCCAAGTATCAGTTAGGCATAGAGAAACTACTGGATCCTGAAGGTT (double strand) [DMD exon 7 target]” was run?
A: 27

Q: What about the activity (% modified day 3) [28] of the same sequence?
A: 27

Q: Which activity [29] does the source give for “GCTCTACTCTACCCC (double strand) [KissR3.2 left half-site]” here?
A: 53 % HDR day 3

Q: “GCTCTGGAGAATGT (double strand) [GDF83.6-G left half-site]” was tested. Which activity [30] did it give?
A: 18 % HDR day 3

Q: For “GCTGGGACCACCTGTCAG (double strand) [CLPG1.1 right half-site (sense strand)]”, which activity [31] is on record?
A: 4 % HDR day 3

Q: “GGAAGAAGTATCAGCCAT (double strand) [APC14.2 left half-site]” was tested. Which activity [32] did it give?
A: 48 % HDR day 3

Q: Which activity [33] does the source give for “GGATGAAACCGAAATT (double strand) [DAZL3.1 left half-site]” here?
A: 25 % HDR day 3

Q: How did the activity [34] turn out when “GGCACCCGTGTCCGCGC (double strand) [Tp53 left half-site]” was run?
A: 22 % HDR day 3

Q: “GTGATGAACACTCCACAGAATCT (double strand) [GDF83.1 left half-site]” was tested. Which activity (% modified day 3) [35] did it give?
A: 17

Q: Which results are given for “TCTATACCTAGGTCAAAAATGTAATGAAGAAAGTATCAGTTAGGCATAGAGAAACTACTGGA (double strand) [DMD exon 6 target]”?
A: activity (% modified day 3) [36]: 25; activity (% modified day 3) [37]: 25

Q: “TGGGCGACTTCATGTGC (double strand) [KissR3.2 right half-site (sense strand)]” was tested. Which activity [38] did it give?
A: 53 % HDR day 3
